Data reported in the supplement of paper PMC10567573.

B1: FBXO3 (parent)
chain: AGGFQQRQGLKYCLPLTFCIHTGL
B2: RAB11A (parent)
chain: AVPTDEARAFAEKNGLSFIETSAL
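Also: lentivirally expressed fusions sorted by FACS into six bins by GFP to DsRed ratio, PSI derived from sequencing read proportions per bin multiplied by bin number.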

Variants of: B1
Assay: protein stability index of a GFP-peptide fusion (GPS, HEK-293T) (PSI 1-6); higher = more stable
Conditions: c terminus: a fixed tail appended
With AGGFQQRQGLKYCLPLTFCIHNGL [T22N] the protein stability index was 3.55.
With AGGFQQRQGLKYCLPLTFCIHPGL [T22P] the protein stability index was 3.88.
AGGFQQRQGLKYCLPLTFCIHLGL [T22L] showed a protein stability index of 2.59.
Work on AGGFQQRQGLKYCLPLTFCIHYGL [T22Y] yielded a protein stability index of 3.75.
AGGFQQRQGLKYCLPLTFCIHVGL [T22V] gave a protein stability index of 3.1.
Work on AGGFQQRQGLKYCLPLTFCIHHGL [T22H] yielded a protein stability index of 2.17.
AGGFQQRQGLKYCLPLTFCIHCGL [T22C] showed a protein stability index of 2.09.
AGGFQQRQGLKYCLPLTFCIHDGL [T22D] showed a protein stability index of 1.27.
For AGGFQQRQGLKYCLPLTFCIHMGL [T22M], the protein stability index was 2.18.
Work on AGGFQQRQGLKYCLPLTFCIHAGL [T22A] yielded a protein stability index of 1.86.
In the case of AGGFQQRQGLKYCLPLTFCIHRGL [T22R], the protein stability index is reported as 2.2.
In the case of AGGFQQRQGLKYCLPLTFCIHQGL [T22Q], the protein stability index is reported as 2.23.
Variant AGGFQQRQGLKYCLPLTFCIHSGL [T22S] has a protein stability index of 3.29.
Variant AGGFQQRQGLKYCLPLTFCIHWGL [T22W] has a protein stability index of 2.86.
In the case of AGGFQQRQGLKYCLPLTFCIHEGL [T22E], the protein stability index is reported as 2.24.
For AGGFQQRQGLKYCLPLTFCIHKGL [T22K], the protein stability index was 2.49.

Variants of: B2
Assay: as above
Conditions: c terminus: a fixed tail appended
In the case of AVPTDEARAFAEKKGLSFIETSAL [N14K], the protein stability index is reported as 2.46.
For AVPTDEARAFAEKQGLSFIETSAL [N14Q], the protein stability index was 2.85.
Work on AVPTDEARAFAEKWGLSFIETSAL [N14W] yielded a protein stability index of 1.74.
For AVPTDEARAFAEKNGLSFIETEAL [S22E], the protein stability index was 4.01.
For AVPTDEARAFAEKNGLSFIETCAL [S22C], the protein stability index was 2.54.
With AVPTDEARAFAEKNGLSFIETMAL [S22M] the protein stability index was 1.95.
With AVPTDEARAQAEKNGLSFIETSAL [F10Q] the protein stability index was 3.08.
In the case of AVPTDEARARAEKNGLSFIETSAL [F10R], the protein stability index is reported as 2.49.
Work on AVPTDEARAFAEHNGLSFIETSAL [K13H] yielded a protein stability index of 1.77.
In the case of AVPTDEARAFAEINGLSFIETSAL [K13I], the protein stability index is reported as 2.09.
In the case of AVPTDEARAFAEDNGLSFIETSAL [K13D], the protein stability index is reported as 3.88.
AVPTDEARAFAERNGLSFIETSAL [K13R] gave a protein stability index of 2.52.
AVPTDEARAFAESNGLSFIETSAL [K13S] showed a protein stability index of 2.9.
Variant AVPTDEARAFAEKNGLSFIETSAH [L24H] has a protein stability index of 4.06.
Work on AVPTDEARAFAEKNGLSFIETSAT [L24T] yielded a protein stability index of 3.98.
AVPTDEARAFAEKNGLSFIETSAN [L24N] gave a protein stability index of 4.47.
For AVPTDEARAFWEKNGLSFIETSAL [A11W], the protein stability index was 1.9.
AVPTDEARAFREKNGLSFIETSAL [A11R] showed a protein stability index of 2.12.
Work on AVPTDEARAFSEKNGLSFIETSAL [A11S] yielded a protein stability index of 2.63.
With AVPTDEARAFTEKNGLSFIETSAL [A11T] the protein stability index was 2.31.
ANPTDEARAFAEKNGLSFIETSAL [V2N] gave a protein stability index of 2.52.
With ACPTDEARAFAEKNGLSFIETSAL [V2C] the protein stability index was 2.15.
For AFPTDEARAFAEKNGLSFIETSAL [V2F], the protein stability index was 2.35.
In the case of ALPTDEARAFAEKNGLSFIETSAL [V2L], the protein stability index is reported as 2.48.
AGPTDEARAFAEKNGLSFIETSAL [V2G] gave a protein stability index of 2.73.
AVPLDEARAFAEKNGLSFIETSAL [T4L] showed a protein stability index of 2.79.
With AVPTDEARAFAEKNGCSFIETSAL [L16C] the protein stability index was 3.66.
For AVPTDEAEAFAEKNGLSFIETSAL [R8E], the protein stability index was 3.25.
AVPTDEAAAFAEKNGLSFIETSAL [R8A] showed a protein stability index of 2.64.
AVPTDEANAFAEKNGLSFIETSAL [R8N] gave a protein stability index of 2.64.
With AVPTDEATAFAEKNGLSFIETSAL [R8T] the protein stability index was 2.84.
Variant AVPTDEAWAFAEKNGLSFIETSAL [R8W] has a protein stability index of 2.46.
IVPTDEARAFAEKNGLSFIETSAL [A1I] showed a protein stability index of 2.57.
Work on MVPTDEARAFAEKNGLSFIETSAL [A1M] yielded a protein stability index of 2.41.
For AVPTDEARAFAGKNGLSFIETSAL [E12G], the protein stability index was 1.9.
With AVPTDEARAFANKNGLSFIETSAL [E12N] the protein stability index was 2.41.
Work on AVPTDEARAFAEKNGLSFIETSCL [A23C] yielded a protein stability index of 2.08.
AVPTDEARAFAEKNGLSFIETSML [A23M] showed a protein stability index of 1.81.
In the case of AVPTDEARAFAEKNGLSFIETSYL [A23Y], the protein stability index is reported as 1.81.
AVPTDEARAFAEKNGLSFIETSGL [A23G] showed a protein stability index of 3.49.
Variant AVPTDECRAFAEKNGLSFIETSAL [A7C] has a protein stability index of 1.83.
AVPTDEMRAFAEKNGLSFIETSAL [A7M] gave a protein stability index of 2.05.
AVPTDEGRAFAEKNGLSFIETSAL [A7G] showed a protein stability index of 2.17.
AVPTDEIRAFAEKNGLSFIETSAL [A7I] gave a protein stability index of 2.21.
AVPTDESRAFAEKNGLSFIETSAL [A7S] gave a protein stability index of 2.68.
In the case of AVPTDEFRAFAEKNGLSFIETSAL [A7F], the protein stability index is reported as 2.48.
With AVPTDEHRAFAEKNGLSFIETSAL [A7H] the protein stability index was 2.43.
With AVPTDEARAFAEKNGLSNIETSAL [F18N] the protein stability index was 4.47.
With AVPTDEARAFAEKNGLSYIETSAL [F18Y] the protein stability index was 2.62.
AVPTDEARAFAEKNGLSQIETSAL [F18Q] gave a protein stability index of 4.33.
AVPTDEARAFAEKNGLSFIEYSAL [T21Y] gave a protein stability index of 1.5.
With AVPTDEARAFAEKNGLSFIECSAL [T21C] the protein stability index was 2.87.
Variant AVPTDEARAFAEKNGLSFIEDSAL [T21D] has a protein stability index of 4.45.
AVPTDEARAFAEKNGLSFDETSAL [I19D] gave a protein stability index of 4.56.
With AVPTDEARAFAEKNGLSFQETSAL [I19Q] the protein stability index was 3.6.
In the case of AVPTDEARAFAEKNGLSFSETSAL [I19S], the protein stability index is reported as 4.41.
In the case of AVPTDEARAFAEKNGLSFVETSAL [I19V], the protein stability index is reported as 3.
With AVPTDEARAFAEKNGLSFNETSAL [I19N] the protein stability index was 4.43.
In the case of AVPTDEARAFAEKNGLSFRETSAL [I19R], the protein stability index is reported as 3.85.
Work on AVPTDFARAFAEKNGLSFIETSAL [E6F] yielded a protein stability index of 1.73.
Variant AVPTDCARAFAEKNGLSFIETSAL [E6C] has a protein stability index of 2.13.
With AVPTDNARAFAEKNGLSFIETSAL [E6N] the protein stability index was 2.24.
AVPTDEARAFAEKNGLEFIETSAL [S17E] gave a protein stability index of 4.3.
For AVPTDEARAFAEKNGLPFIETSAL [S17P], the protein stability index was 4.38.
AVPTDEARLFAEKNGLSFIETSAL [A9L] gave a protein stability index of 2.45.
Work on AVPTDEARGFAEKNGLSFIETSAL [A9G] yielded a protein stability index of 2.57.
Variant AVPTDEARAFAEKNILSFIETSAL [G15I] has a protein stability index of 2.8.
Variant AVPTDEARAFAEKNHLSFIETSAL [G15H] has a protein stability index of 2.15.
Variant AVPTDEARAFAEKNWLSFIETSAL [G15W] has a protein stability index of 2.3.
In the case of AVPTDEARAFAEKNALSFIETSAL [G15A], the protein stability index is reported as 2.08.
In the case of AVPTMEARAFAEKNGLSFIETSAL [D5M], the protein stability index is reported as 1.72.
AVPTEEARAFAEKNGLSFIETSAL [D5E] showed a protein stability index of 2.35.
In the case of AVPTDEARAFAEKNGLSFIWTSAL [E20W], the protein stability index is reported as 1.44.
AVMTDEARAFAEKNGLSFIETSAL [P3M] showed a protein stability index of 2.47.
Variant AVQTDEARAFAEKNGLSFIETSAL [P3Q] has a protein stability index of 2.78.
Work on AVRTDEARAFAEKNGLSFIETSAL [P3R] yielded a protein stability index of 2.07.
In the case of AVNTDEARAFAEKNGLSFIETSAL [P3N], the protein stability index is reported as 2.77.
AVKTDEARAFAEKNGLSFIETSAL [P3K] gave a protein stability index of 2.55.
